Experimental findings from patent US12565506B2, “Nitrogen-containing macrocyclic conjugates as radiopharmaceuticals” (Clarity Pharmaceuticals Ltd., priority 2008, dated 2026) are described below.

A short description of the data set: Serum stability of 64Cu-labelled Sar-peptides by radio-HPLC. The data set is classed as in vitro ADME. The settings on record: human male AB serum, 37° C. How it is done: Human male AB serum (200 μL) was added to a solution of [^64CuL^1-Tyr^3-octreotate]^2+ (200 μL). This solution was incubated in a water bath at 37° C. At time points of 1 hr, 4 hr and 20 hr an aliquot of this serum solution (100 μL) was removed for radio-HPLC analysis: acetonitrile (200 μL) was added to the serum aliquot to precipitate serum proteins. This mixture was filtered and the acetonitrile evaporated under a stream of argon gas. The final volume was <100 μL. The solution was frozen at −70° C. until injection onto the HPLC column. 1 hr: Retention time 12.716 min, >95% radiochemical yield; 4 hr: Retention time 12.725 min, >95% radiochemical yield; 20 hr: Retention time 12.800 min, >95% radiochemical yield.
A single time point serum stability study for [^64CuL^1-Lys3-bombesin]^2+ was conducted in the same way as studies for [^64CuL^1-Tyr^3-octreotate]^2+. An aliquot of [^64CuL^1-Lys3-bombesin]^2+ (200 μL) was added to human male AB serum and incubated at 37° C. After 2 hr, the sample was subjected to the same treatment as described above and injected onto the HPLC column. 2 hr: Retention time 12.828 min, >95% radiochemical yield.

`CSCC[C@H](NC(=O)[C@H](CC(C)C)NC(=O)[C@H](Cc1c[nH]cn1)NC(=O)CNC(=O)[C@@H](NC(=O)[C@H](C)NC(=O)[C@H](Cc1c[nH]c2ccccc12)NC(=O)[C@H](CCC(N)=O)NC(=O)[C@H](CC(N)=O)NC(=O)CNC(=O)[C@H](CC(C)C)NC(=O)[C@H](CCCCNC(=O)CCCC(=O)NC12CNCCNCC(N)(CNCCNC1)CNCCNC2)NC(=O)[C@H](CCC(N)=O)NC(=O)[C@@H]1CCC(=O)N1)C(C)C)C(N)=O` (64Cu complex, metal not drawn) [[^64CuL^1-Lys3-bombesin]^2+]: the “radiochemical yield (intact complex by radio-HPLC) after incubation in serum” value (2 hr) is greater than 95%.
For the compound `CC(O)[C@H](NC(=O)C1CSSC[C@H](NC(=O)[C@@H](Cc2ccccc2)NC(=O)CCCC(=O)N[C@]23CNCCNC[C@]4(N)C[N]5CC[N](C2)[Cu]52([CH3])([CH3])[N](CC[N]2C3)C4)C(=O)N[C@@H](Cc2ccc(O)cc2)C(=O)N[C@H](Cc2c[nH]c3ccccc23)C(=O)N[C@@H](CCCCN)C(=O)N[C@@H](C(C)O)C(=O)N1)C(=O)O` (stereo partly shown) [[^64CuL^1-Tyr^3-octreotate]^2+], the “radiochemical yield (intact complex by radio-HPLC) after incubation in serum” value was greater than 95% (1 hr), greater than 95% (4 hr) and greater than 95% (20 hr).
